B1: NETO1 (parent)
chain: GFSPIIGRFCGQQNPPVIKSSGRF

Variants of: B1
Assay: protein stability index of a GFP-peptide fusion (GPS, HEK-293T) (PSI 1-6); higher = more stable
Details: c terminus: a fixed tail appended
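Also: lentivirally expressed fusions sorted by FACS into six bins by GFP to DsRed ratio, PSI derived from sequencing read proportions per bin multiplied by bin number.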

Question: With GFSPLIGRFCGQQNPPVIKSSGRF [I5L] as the variant, how does the protein stability index read?
Answer: 2.17

Question: For GFSPMIGRFCGQQNPPVIKSSGRF [I5M], which protein stability index is on record?
Answer: 2.19

Question: Which protein stability index does the source give for GFSPNIGRFCGQQNPPVIKSSGRF [I5N] here?
Answer: 2.34

Question: For GFSPPIGRFCGQQNPPVIKSSGRF [I5P], which protein stability index is on record?
Answer: 2.79

Question: For GFSPQIGRFCGQQNPPVIKSSGRF [I5Q], which protein stability index is on record?
Answer: 2.52

Question: Which protein stability index does the source give for GFSPRIGRFCGQQNPPVIKSSGRF [I5R] here?
Answer: 2.79

Question: For GFSPSIGRFCGQQNPPVIKSSGRF [I5S], which protein stability index is on record?
Answer: 2.62

Question: With GFSPTIGRFCGQQNPPVIKSSGRF [I5T] as the variant, how does the protein stability index read?
Answer: 2.36

Question: For GFSPVIGRFCGQQNPPVIKSSGRF [I5V], which protein stability index is on record?
Answer: 1.87

Question: For GFSPWIGRFCGQQNPPVIKSSGRF [I5W], which protein stability index is on record?
Answer: 1.42

Question: For GFSPYIGRFCGQQNPPVIKSSGRF [I5Y], which protein stability index is on record?
Answer: 2.36

Question: With GFSPIAGRFCGQQNPPVIKSSGRF [I6A] as the variant, how does the protein stability index read?
Answer: 2.1

Question: Which protein stability index does the source give for GFSPICGRFCGQQNPPVIKSSGRF [I6C] here?
Answer: 2.11

Question: For GFSPIDGRFCGQQNPPVIKSSGRF [I6D], which protein stability index is on record?
Answer: 3.54

Question: With GFSPIEGRFCGQQNPPVIKSSGRF [I6E] as the variant, how does the protein stability index read?
Answer: 3.28

Question: For GFSPIFGRFCGQQNPPVIKSSGRF [I6F], which protein stability index is on record?
Answer: 2.16

Question: With GFSPIGGRFCGQQNPPVIKSSGRF [I6G] as the variant, how does the protein stability index read?
Answer: 2.58

Question: With GFSPIHGRFCGQQNPPVIKSSGRF [I6H] as the variant, how does the protein stability index read?
Answer: 2.77

Question: For GFSPIKGRFCGQQNPPVIKSSGRF [I6K], which protein stability index is on record?
Answer: 3.17

Question: With GFSPILGRFCGQQNPPVIKSSGRF [I6L] as the variant, how does the protein stability index read?
Answer: 2.55

Question: For GFSPIMGRFCGQQNPPVIKSSGRF [I6M], which protein stability index is on record?
Answer: 2.05

Question: Which protein stability index does the source give for GFSPINGRFCGQQNPPVIKSSGRF [I6N] here?
Answer: 2.37

Question: With GFSPIPGRFCGQQNPPVIKSSGRF [I6P] as the variant, how does the protein stability index read?
Answer: 2.95

Question: For GFSPIQGRFCGQQNPPVIKSSGRF [I6Q], which protein stability index is on record?
Answer: 2.38

Question: For GFSPIRGRFCGQQNPPVIKSSGRF [I6R], which protein stability index is on record?
Answer: 3.09

Question: For GFSPISGRFCGQQNPPVIKSSGRF [I6S], which protein stability index is on record?
Answer: 2.94

Question: Which protein stability index does the source give for GFSPITGRFCGQQNPPVIKSSGRF [I6T] here?
Answer: 2.39

Question: With GFSPIVGRFCGQQNPPVIKSSGRF [I6V] as the variant, how does the protein stability index read?
Answer: 2.15

Question: Which protein stability index does the source give for GFSPIWGRFCGQQNPPVIKSSGRF [I6W] here?
Answer: 2.68

Question: Which protein stability index does the source give for GFSPIYGRFCGQQNPPVIKSSGRF [I6Y] here?
Answer: 1.91

Question: With GFSPIIARFCGQQNPPVIKSSGRF [G7A] as the variant, how does the protein stability index read?
Answer: 1.73

Question: With GFSPIIDRFCGQQNPPVIKSSGRF [G7D] as the variant, how does the protein stability index read?
Answer: 2.66

Question: For GFSPIIERFCGQQNPPVIKSSGRF [G7E], which protein stability index is on record?
Answer: 2.39

Question: For GFSPIIFRFCGQQNPPVIKSSGRF [G7F], which protein stability index is on record?
Answer: 2.03

Question: Which protein stability index does the source give for GFSPIIHRFCGQQNPPVIKSSGRF [G7H] here?
Answer: 1.74

Question: With GFSPIIIRFCGQQNPPVIKSSGRF [G7I] as the variant, how does the protein stability index read?
Answer: 2.88

Question: For GFSPIIKRFCGQQNPPVIKSSGRF [G7K], which protein stability index is on record?
Answer: 1.89

Question: With GFSPIILRFCGQQNPPVIKSSGRF [G7L] as the variant, how does the protein stability index read?
Answer: 1.85

Question: With GFSPIIMRFCGQQNPPVIKSSGRF [G7M] as the variant, how does the protein stability index read?
Answer: 1.56

Question: With GFSPIINRFCGQQNPPVIKSSGRF [G7N] as the variant, how does the protein stability index read?
Answer: 2.38

Question: With GFSPIIPRFCGQQNPPVIKSSGRF [G7P] as the variant, how does the protein stability index read?
Answer: 1.65

Question: Which protein stability index does the source give for GFSPIIRRFCGQQNPPVIKSSGRF [G7R] here?
Answer: 2.25

Question: For GFSPIISRFCGQQNPPVIKSSGRF [G7S], which protein stability index is on record?
Answer: 2.3

Question: Which protein stability index does the source give for GFSPIITRFCGQQNPPVIKSSGRF [G7T] here?
Answer: 2.47

Question: With GFSPIIVRFCGQQNPPVIKSSGRF [G7V] as the variant, how does the protein stability index read?
Answer: 1.83

Question: With GFSPIIWRFCGQQNPPVIKSSGRF [G7W] as the variant, how does the protein stability index read?
Answer: 1.42

Question: With GFSPIIYRFCGQQNPPVIKSSGRF [G7Y] as the variant, how does the protein stability index read?
Answer: 1.64

Question: For GFSPIIGAFCGQQNPPVIKSSGRF [R8A], which protein stability index is on record?
Answer: 2.72

Question: For GFSPIIGCFCGQQNPPVIKSSGRF [R8C], which protein stability index is on record?
Answer: 1.61

Question: Which protein stability index does the source give for GFSPIIGDFCGQQNPPVIKSSGRF [R8D] here?
Answer: 2.63

Question: For GFSPIIGEFCGQQNPPVIKSSGRF [R8E], which protein stability index is on record?
Answer: 3.19

Question: Which protein stability index does the source give for GFSPIIGFFCGQQNPPVIKSSGRF [R8F] here?
Answer: 1.62

Question: For GFSPIIGGFCGQQNPPVIKSSGRF [R8G], which protein stability index is on record?
Answer: 2.16

Question: With GFSPIIGHFCGQQNPPVIKSSGRF [R8H] as the variant, how does the protein stability index read?
Answer: 1.79

Question: For GFSPIIGIFCGQQNPPVIKSSGRF [R8I], which protein stability index is on record?
Answer: 2.43

Question: Which protein stability index does the source give for GFSPIIGKFCGQQNPPVIKSSGRF [R8K] here?
Answer: 2.19

Question: With GFSPIIGLFCGQQNPPVIKSSGRF [R8L] as the variant, how does the protein stability index read?
Answer: 1.83

Question: With GFSPIIGMFCGQQNPPVIKSSGRF [R8M] as the variant, how does the protein stability index read?
Answer: 1.76

Question: For GFSPIIGNFCGQQNPPVIKSSGRF [R8N], which protein stability index is on record?
Answer: 2.04

Question: For GFSPIIGPFCGQQNPPVIKSSGRF [R8P], which protein stability index is on record?
Answer: 2.61

Question: With GFSPIIGQFCGQQNPPVIKSSGRF [R8Q] as the variant, how does the protein stability index read?
Answer: 2.19

Question: Which protein stability index does the source give for GFSPIIGSFCGQQNPPVIKSSGRF [R8S] here?
Answer: 2.05

Question: Which protein stability index does the source give for GFSPIIGTFCGQQNPPVIKSSGRF [R8T] here?
Answer: 2.18

Question: With GFSPIIGVFCGQQNPPVIKSSGRF [R8V] as the variant, how does the protein stability index read?
Answer: 2.23

Question: With GFSPIIGWFCGQQNPPVIKSSGRF [R8W] as the variant, how does the protein stability index read?
Answer: 1.93

Question: Which protein stability index does the source give for GFSPIIGYFCGQQNPPVIKSSGRF [R8Y] here?
Answer: 1.83

Question: Which protein stability index does the source give for GFSPIIGRACGQQNPPVIKSSGRF [F9A] here?
Answer: 2.87

Question: For GFSPIIGRCCGQQNPPVIKSSGRF [F9C], which protein stability index is on record?
Answer: 2.06

Question: With GFSPIIGRDCGQQNPPVIKSSGRF [F9D] as the variant, how does the protein stability index read?
Answer: 3.31

Question: Which protein stability index does the source give for GFSPIIGRECGQQNPPVIKSSGRF [F9E] here?
Answer: 3.73

Question: With GFSPIIGRGCGQQNPPVIKSSGRF [F9G] as the variant, how does the protein stability index read?
Answer: 1.97

Question: Which protein stability index does the source give for GFSPIIGRHCGQQNPPVIKSSGRF [F9H] here?
Answer: 1.69

Question: For GFSPIIGRICGQQNPPVIKSSGRF [F9I], which protein stability index is on record?
Answer: 2.45

Question: With GFSPIIGRKCGQQNPPVIKSSGRF [F9K] as the variant, how does the protein stability index read?
Answer: 2.49

Question: Which protein stability index does the source give for GFSPIIGRLCGQQNPPVIKSSGRF [F9L] here?
Answer: 2.49

Question: For GFSPIIGRMCGQQNPPVIKSSGRF [F9M], which protein stability index is on record?
Answer: 2.17

Question: Which protein stability index does the source give for GFSPIIGRNCGQQNPPVIKSSGRF [F9N] here?
Answer: 2.42

Question: With GFSPIIGRPCGQQNPPVIKSSGRF [F9P] as the variant, how does the protein stability index read?
Answer: 1.95

Question: Which protein stability index does the source give for GFSPIIGRQCGQQNPPVIKSSGRF [F9Q] here?
Answer: 2.38

Question: Which protein stability index does the source give for GFSPIIGRRCGQQNPPVIKSSGRF [F9R] here?
Answer: 2.07

Question: With GFSPIIGRSCGQQNPPVIKSSGRF [F9S] as the variant, how does the protein stability index read?
Answer: 1.98

Question: With GFSPIIGRTCGQQNPPVIKSSGRF [F9T] as the variant, how does the protein stability index read?
Answer: 1.75

Question: With GFSPIIGRVCGQQNPPVIKSSGRF [F9V] as the variant, how does the protein stability index read?
Answer: 2.66

Question: Which protein stability index does the source give for GFSPIIGRWCGQQNPPVIKSSGRF [F9W] here?
Answer: 2.27

Question: Which protein stability index does the source give for GFSPIIGRYCGQQNPPVIKSSGRF [F9Y] here?
Answer: 1.98

Question: Which protein stability index does the source give for GFSPIIGRFAGQQNPPVIKSSGRF [C10A] here?
Answer: 3.07

Question: With GFSPIIGRFDGQQNPPVIKSSGRF [C10D] as the variant, how does the protein stability index read?
Answer: 2.71

Question: With GFSPIIGRFEGQQNPPVIKSSGRF [C10E] as the variant, how does the protein stability index read?
Answer: 3.76

Question: For GFSPIIGRFFGQQNPPVIKSSGRF [C10F], which protein stability index is on record?
Answer: 2.51

Question: For GFSPIIGRFGGQQNPPVIKSSGRF [C10G], which protein stability index is on record?
Answer: 3.05

Question: With GFSPIIGRFHGQQNPPVIKSSGRF [C10H] as the variant, how does the protein stability index read?
Answer: 2.38

Question: With GFSPIIGRFIGQQNPPVIKSSGRF [C10I] as the variant, how does the protein stability index read?
Answer: 2.86

Question: Which protein stability index does the source give for GFSPIIGRFKGQQNPPVIKSSGRF [C10K] here?
Answer: 2.93

Question: For GFSPIIGRFLGQQNPPVIKSSGRF [C10L], which protein stability index is on record?
Answer: 2.79
